Source: paper PMC11698656

Key:
[1] = molecular target: ancestral human TRPV6 (R157, V378, T681) (human); test: cryo-EM structure
[2] = molecular target: derived human TRPV6 (C157, M378, M681) (human); test: cryo-EM structure

Substance: ancestral human TRPV6 (R157, V378, T681) (natural protein)
- stoichiometry N [1]: 4 subunits

Substance: derived human TRPV6 (C157, M378, M681) (natural protein)
- stoichiometry N [2]: 4

Substance: endogenous calmodulin (CaM) (from UniProt P0DP23 1-149) (natural protein)
- stoichiometry N (CaM per TRPV6 tetramer) [1]: 1
